Data on two molecules can be found in patent US20080039532A1, “Compounds For Specific Viral Target” (priority 2004, published 2008).

The target of this assay is N-heptad repeat of HIV-1's gp41 (HIV-1 strain IIIB) (HIV-1 strain IIIB), P04578. Briefly: cell-based or functional assay.

Several values for one entry are separate records, joined by “and”; a condition that tells them apart may be missing. Equal values may be shown once.

Chain of N-heptad repeat of HIV-1's gp41 (HIV-1 strain IIIB) (HIV-1 strain IIIB), P04578 (P04578 540-590 limits assumed): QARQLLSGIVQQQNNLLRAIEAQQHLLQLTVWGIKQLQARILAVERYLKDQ

Turning to WMEWDREINNYTSLIHSLIEESQNQQERNEQELL (modifications not checked) [CJC-1646 (SEQ ID NO:93), native (unreactive) C34], the RT Results (cpm) (Day 7), HIV-1 IIIB in CBMC, drug at 0 nM (no-drug baseline) is 49000 cpm and 46300 cpm and 47400 cpm; the RT Results (cpm) (Day 7), HIV-1 IIIB in CBMC, drug at 125 nM is 5850 cpm and 5040 cpm and 5220 cpm; the RT Results (cpm) (Day 7), HIV-1 IIIB in CBMC, drug at 600 nM is 4920 cpm and 5850 cpm and 5090 cpm; the RT Results (cpm) (Day 7), HIV-1 IIIB in CBMC, drug at 3000 nM was 5810 cpm and 6960 cpm and 5970 cpm.

Turning to WMEWKREINNYTSLIHSLIEESQNQQERNEQELL (modifications not checked) [CJC-1655 (SEQ ID NO:32), C34 with linker-R1-R2-M inserted at position Asp5], the RT Results (cpm) (Day 7), HIV-1 IIIB in CBMC, drug at 0 nM (no-drug baseline) was 71900 cpm and 54100 cpm and 51000 cpm; the RT Results (cpm) (Day 7), HIV-1 IIIB in CBMC, drug at 125 nM is 6320 cpm and 6930 cpm and 5910 cpm; the RT Results (cpm) (Day 7), HIV-1 IIIB in CBMC, drug at 600 nM was 6480 cpm and 11900 cpm and 6030 cpm; the RT Results (cpm) (Day 7), HIV-1 IIIB in CBMC, drug at 3000 nM was 7970 cpm and 5900 cpm and 6210 cpm.
